Article PMC9943654, “The recognition mode between hsRBFA and mitoribosome 12S rRNA during mitoribosomal biogenesis”

Columns and labels:
[1] = biological target: T1, hsRBFA Nt-KH (Homo sapiens, UniProt Q8N0V3 42-201); experiment: EMSA; EMSA: 20 mM Tris-HCl pH 8.0, 200 mM NaCl, 37 C 30 min, 200 nM ssRNA or 2 uM dsRNA; FP: same buffer, 40 nM 5'-FAM RNA, temperature not stated; conditions: protein: recombinant, tags: His6-MBP N-terminal
T1 sequence: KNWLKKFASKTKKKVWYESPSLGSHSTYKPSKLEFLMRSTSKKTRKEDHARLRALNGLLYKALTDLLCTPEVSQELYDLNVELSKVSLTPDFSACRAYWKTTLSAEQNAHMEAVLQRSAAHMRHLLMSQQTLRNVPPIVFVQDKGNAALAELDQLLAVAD

[2] = biological target: T2, hsRBFA KH-like (Homo sapiens, UniProt Q8N0V3 86-201); experiment: as above; conditions: protein: recombinant, tags: His6-MBP N-terminal
T2 sequence: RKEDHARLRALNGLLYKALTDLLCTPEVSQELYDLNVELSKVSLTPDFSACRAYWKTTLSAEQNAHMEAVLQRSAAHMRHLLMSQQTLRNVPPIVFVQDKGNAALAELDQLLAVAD

[3] = biological target: T3, hsRBFA Nt (Homo sapiens, UniProt Q8N0V3 42-89); experiment: EMSA; complex stays in well; EMSA: 20 mM Tris-HCl pH 8.0, 200 mM NaCl, 37 C 30 min, 200 nM ssRNA or 2 uM dsRNA; FP: same buffer, 40 nM 5'-FAM RNA, temperature not stated; conditions: protein: recombinant, tags: His6-MBP N-terminal, hairpin
T3 chain: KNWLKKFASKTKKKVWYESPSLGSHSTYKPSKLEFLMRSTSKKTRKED

**Q.** Does GGCGUCACCCUCUUCGGAGACAAGUCGCC (structured_RNA) [h44] bind ([1]; label: 5'-FAM in FP, hairpin)?
**A.** binds

**Q.** Does GGCGUCACCCUCUUCGGAGACAAGUCGCC (structured_RNA) [h44] bind ([2]; label: 5'-FAM in FP, hairpin)?
**A.** no binding

**Q.** Does GGCGUCACCCUCUUCGGAGACAAGUCGCC (structured_RNA) [h44] bind ([3]; label: 5'-FAM in FP)?
**A.** binds

**Q.** Does AUAAUAGAAGUAUUAU (structured_RNA) [AU] bind ([1]; hairpin)?
**A.** binds

**Q.** Does GGUGGCGGUGCUUCAUUCGUGAAGCGCGUCACC (structured_RNA) [h28] bind ([1]; hairpin)?
**A.** binds

**Q.** Does GGUGGCGGUGCUUCAUUCGUGAAGCGCGUCACC (structured_RNA) [h28] bind ([2]; hairpin)?
**A.** no binding

**Q.** Does GGUGGCGGUGCUUCAUUCGUGAAGCGCGUCACC (structured_RNA) [h28] bind [3]?
**A.** binds

**Q.** Does GACGAAC (ssRNA) [ssRNA-3'end] bind ([2]; single strand)?
**A.** no binding

**Q.** Does UAAGUGUACUGGAAAGUGCACUUG (structured_RNA) [h45] bind ([1]; hairpin)?
**A.** binds

**Q.** Does UAAGUGUACUGGAAAGUGCACUUG (structured_RNA) [h45] bind ([2]; hairpin)?
**A.** no binding

**Q.** Does UAAGUGUACUGGAAAGUGCACUUG (structured_RNA) [h45] bind [3]?
**A.** binds

B1: DNA (dsDNA)
DNA 1: TTGGTCAG
DNA 2: CTGACCAA
**Q.** Does B1 bind ([1]; blunt)?
**A.** binds

**Q.** Does CGCCGCGAAGGCGGCG (structured_RNA) [GC] bind ([1]; hairpin)?
**A.** binds
